Test results: patent US20170159065A1 (VIB VZW, published 2017)

T1: TIFY8 (Arabidopsis, UniProt Q84MB2 1-361)
T1 sequence (looked up): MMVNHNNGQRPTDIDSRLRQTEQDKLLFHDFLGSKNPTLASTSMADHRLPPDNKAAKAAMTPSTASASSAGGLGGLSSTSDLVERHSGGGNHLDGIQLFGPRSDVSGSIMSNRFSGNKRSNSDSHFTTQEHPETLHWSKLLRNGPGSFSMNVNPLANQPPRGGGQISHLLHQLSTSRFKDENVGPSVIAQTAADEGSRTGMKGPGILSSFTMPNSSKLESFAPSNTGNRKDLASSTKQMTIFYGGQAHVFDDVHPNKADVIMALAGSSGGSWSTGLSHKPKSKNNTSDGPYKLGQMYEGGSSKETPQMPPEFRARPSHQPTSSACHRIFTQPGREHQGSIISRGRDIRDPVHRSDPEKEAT

T2: JAZ3 (Arabidopsis, UniProt Q9LVI4 1-352)
T2 construct: Endogenous prey in TAP; Y2H fusion in the yeast assays
T2 sequence (looked up): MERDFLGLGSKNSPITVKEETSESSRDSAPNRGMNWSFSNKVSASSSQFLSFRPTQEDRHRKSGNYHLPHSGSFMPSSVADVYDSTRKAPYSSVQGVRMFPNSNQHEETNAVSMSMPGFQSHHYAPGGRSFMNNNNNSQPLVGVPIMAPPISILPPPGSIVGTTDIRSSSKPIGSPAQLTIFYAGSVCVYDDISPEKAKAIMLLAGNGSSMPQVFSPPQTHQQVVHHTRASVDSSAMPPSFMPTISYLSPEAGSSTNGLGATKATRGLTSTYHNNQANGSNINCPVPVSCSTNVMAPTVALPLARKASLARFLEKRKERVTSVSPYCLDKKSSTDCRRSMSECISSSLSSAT

B1: PPD2 (PEAPOD2) (other, Arabidopsis thaliana, UniProt Q8GY55 1-315, looked up)
chain: MDVGVTTAKSILEKPLKLLTEEDISQLTREDCRKFLKEKGMRRPSWNKSQAIQQVLSLKALYEPGDDSGAGILRKILVSQPPNPPRVTTTLIEPRNELEACGRIPLQEDDGACHRRDSPRSAEFSGSSGQFVADKDSHKTVSVSPRSPAETNAVVGQMTIFYSGKVNVYDGVPPEKARSIMHFAANPIDLPENGIFASSRMISKPMSKEKMVELPQYGLEKAPASRDSDVEGQANRKVSLQRYLEKRKDRRFSKTKKAPGVASSSLEMFLNRQPRMNAAYSQNLSGTGHCESPENQTKSPNISVDLNSDLNSEDN
notes: Used as tagged bait in TAP from Arabidopsis cell culture and as a GAL4 fusion in Y2H/Y3H; the tags and fusion partners are not described; also called PPD2-HBH
B2: PPD1 (other, Arabidopsis thaliana, UniProt Q7XA73 1-313, looked up)
chain: MDVGVSPAKSILAKPLKLLTEEDISQLTREDCRKFLKDKGMRRPSWNKSQAIQQVLSLKALYEPGDDSGAGIFRKILVSQPVNPPRVTTTLIEPSNELEACGRVSYPEDNGACHRMDSPRSAEFSGGSGHFVSEKDGHKTTISPRSPAETSELVGQMTIFYSGKVNVYDGIPPEKARSIMHFAANPIDLPENGIFASSRMISKLISKEKMMELPQKGLEKANSSRDSGMEGQANRKVSLQRYREKRKDRKFSKAKKCPGVASSSLEMFLNCQPRMKAAYSQNLGCTGSPLHSQSPESQTKSPNLSVDLNSEGI
notes: Y2H fusion; also called PEAPOD1

Columns and labels:
TIFY8 = target: T1, TIFY8; assay: tandem affinity purification (TAP) from Arabidopsis cell culture, Orbitrap mass spectrometry
Text: (§1) PPD proteins belong to the class II of the TIFY protein family together with 12 JAZ proteins […]. In the TIFY proteins, diverse domains are associated with different protein-protein interaction abilities, previously being able to isolate, by using tandem affinity purification (TAP), protein complexes from Arabidopsis cell cultures over-expressing JAZ proteins and to identify their interacting proteins (Pauwels et al., 2010). In order to determine the protein complex associated to PPD2, an updated and more sensitive protocol was applied using Orbitrap mass spectrometry (Eloy et al., 2012). […] To test this hypothesis, all 12 JAZ proteins, PPD1, PPD2 and TIFY8 for interaction with the PPD proteins were tested using yeast two-hybrid (Y2H) assays. These confirmed direct interaction with JAZ3 and TIFY8 and provided evidence of homo- and heterodimerization between PPD1 and PPD2. Moreover, the TAP analysis identified the TPL-adaptor protein NINJA and two proteins of yet unknown function, encoded by At3g24150 and At4g32295 and named KIX8 and KIX9 (see Table 3, Thakur et al., 2013).

JAZ3 = target: T2, JAZ3; assay: as above
Text: as §1

yeast two-hybrid = target: the molecule itself; assay: yeast two-hybrid
PPD2 (PEAPOD2) = target: B1; assay: yeast two-hybrid

B1
binding result (TIFY8): binds | binding result (JAZ3): binds | binding result (yeast two-hybrid): binds

B2
binding result (PPD2 (PEAPOD2)): binds | binding result (yeast two-hybrid): binds
